Measured values from patent US20200199533A1 (KING ABDULLAH UNIVERSITY OF SCIENCE AND TECHNOLOGY, published 2020).

Tests used:
[1] = molecular target: T1, CD34, native glycoprotein from human HSPCs (KG1a, CD34^pos-BM, CD34^pos-UCB, CD34^pos-AML) (human, UniProt P28906 32-385, native glycosylation (about 120-130 kDa form); sialylated O-glycans and tyrosine sulfation are shown to matter for selectin binding); assay: SPR; CD34 captured from CD34^pos-BM lysate on 563 mAb; apparent rate constant after the last E-Ig injection
T1 construct: mature; also called E-selL CD34
T1 sequence (looked up): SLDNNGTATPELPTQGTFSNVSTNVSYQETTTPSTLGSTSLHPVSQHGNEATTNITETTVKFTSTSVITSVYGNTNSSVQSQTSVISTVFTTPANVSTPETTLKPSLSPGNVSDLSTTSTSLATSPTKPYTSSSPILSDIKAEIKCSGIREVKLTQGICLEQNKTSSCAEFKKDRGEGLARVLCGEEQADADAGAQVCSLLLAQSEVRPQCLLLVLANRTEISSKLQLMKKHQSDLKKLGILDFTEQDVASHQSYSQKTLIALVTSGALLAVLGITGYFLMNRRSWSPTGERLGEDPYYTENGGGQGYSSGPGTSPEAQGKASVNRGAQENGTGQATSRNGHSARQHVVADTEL

[2] = molecular target: CD44 (HCELL), native glycoprotein from human HSPCs (KG1a, CD34^pos fraction) (human) (UniProt P16070); assay: SPR; CD44 captured from KG1a lysate on Hermes-3-mAb, E-Ig injected, 150 mM NaCl; apparent rate constant; 1st experiment
Sequence of CD44 (HCELL), native glycoprotein from human HSPCs (KG1a, CD34^pos fraction) (human) (P16070 21-742): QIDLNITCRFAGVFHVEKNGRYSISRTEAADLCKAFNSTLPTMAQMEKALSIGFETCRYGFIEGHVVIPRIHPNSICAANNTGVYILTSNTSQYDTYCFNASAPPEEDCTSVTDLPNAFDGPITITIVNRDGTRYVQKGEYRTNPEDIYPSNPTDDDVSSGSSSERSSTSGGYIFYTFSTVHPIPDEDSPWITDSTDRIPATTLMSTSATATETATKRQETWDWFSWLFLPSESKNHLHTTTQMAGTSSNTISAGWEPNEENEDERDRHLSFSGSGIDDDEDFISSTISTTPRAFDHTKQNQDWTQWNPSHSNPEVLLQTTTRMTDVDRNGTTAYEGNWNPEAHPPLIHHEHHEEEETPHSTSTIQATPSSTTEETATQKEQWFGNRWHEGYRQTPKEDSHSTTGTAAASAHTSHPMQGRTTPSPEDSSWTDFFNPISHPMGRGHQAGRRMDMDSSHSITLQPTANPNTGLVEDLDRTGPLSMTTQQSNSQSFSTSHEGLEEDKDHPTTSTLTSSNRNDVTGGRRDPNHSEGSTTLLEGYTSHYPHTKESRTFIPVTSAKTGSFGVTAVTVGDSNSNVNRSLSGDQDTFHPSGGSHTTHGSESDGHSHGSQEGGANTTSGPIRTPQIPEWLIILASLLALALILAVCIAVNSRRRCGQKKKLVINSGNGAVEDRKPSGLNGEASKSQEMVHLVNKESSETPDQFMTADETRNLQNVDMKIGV

[3] = molecular target: T1, CD34, native glycoprotein from human …; assay: SPR; CD34 captured from KG1a lysate on 563-mAb, E-Ig injected (3.9-2000 nM), 150 mM NaCl; steady-state model; 3rd experiment

B1: recombinant E-selectin human immunoglobulin chimeric protein (Fc fusion)
chain: WSYNTSTEAMTYDEASAYCQQRYTHLVAIQNKEEIEYLNSILSYSPSYYWIGIRKVNNVWVWVGTQKPLTEEAKNWAPGEPNNRQKDEDCVEIYIKREKDVGMWNDERCSKKKLALCYTAACTNTSCSGHGECVETINNYTCKCDPGFSGLKCEQIVNCTALESPEHGSLVCSHPLGNFSYNSSCSISCDRGYLPSSMETMQCMSSGEWSAPIPACNVVECDAVTNPANGFVECFQNPGSFPWNTTCTFDCEEGFELMGAQSLQCTSSGNWDNEKPTCKAVTCRAVRQPQNGSVRCSHSPAGEFTFKSSCNFTCEEGFMLQGPAQVECTTQGQWTQQIPVCEAFQCTALSNPERGYMNCLPSASGSFRYGSSCEFSCEQGFVLKGSKRLQCGPTGEWDNEKPTCEAVRCDAVHQPPKGLVRCAHSPIGEFTYKSSCAFSCEEGFELHGSTQLECTSQGQWTEEVPSCQVVKCSSLAVPGKINMSCSGEPVFGTVCKFACPEGWTLNGSAARTCGATGHWSGLLPTCEAPTESNIP
B1 gave a koff [1] of 0.00019 s⁻¹, a koff [2] of 0.00011 s⁻¹ and a kon [2] of 641 M⁻¹ s⁻¹. It also gave a Kd [3] of 297 nM.
